Laboratory results from US20030133924A1.

Assays:
[1] = molecular target: Mannose 6-phosphate (M6P) receptor purified from bovine liver, coupled to NHS-Sepharose 4B FF resin (bovine); assay: M6P receptor affinity column, 0-1 mM then 5 mM M6P elution; GBA activity in fractions (FIG. 1B)
[2] = molecular target: Mannose 6-phosphate (M6P) receptor purified from bovine liver, coupled to NHS-Sepharose 4B FF resin (bovine); assay: M6P receptor affinity column, 0-1 mM then 5 mM M6P elution; GBA activity in fractions (FIG. 1A)

Sequence of Mannose 6-phosphate (M6P) receptor purified from bovine liver, coupled to NHS-Sepharose 4B FF resin (bovine) (P08169 45-2499): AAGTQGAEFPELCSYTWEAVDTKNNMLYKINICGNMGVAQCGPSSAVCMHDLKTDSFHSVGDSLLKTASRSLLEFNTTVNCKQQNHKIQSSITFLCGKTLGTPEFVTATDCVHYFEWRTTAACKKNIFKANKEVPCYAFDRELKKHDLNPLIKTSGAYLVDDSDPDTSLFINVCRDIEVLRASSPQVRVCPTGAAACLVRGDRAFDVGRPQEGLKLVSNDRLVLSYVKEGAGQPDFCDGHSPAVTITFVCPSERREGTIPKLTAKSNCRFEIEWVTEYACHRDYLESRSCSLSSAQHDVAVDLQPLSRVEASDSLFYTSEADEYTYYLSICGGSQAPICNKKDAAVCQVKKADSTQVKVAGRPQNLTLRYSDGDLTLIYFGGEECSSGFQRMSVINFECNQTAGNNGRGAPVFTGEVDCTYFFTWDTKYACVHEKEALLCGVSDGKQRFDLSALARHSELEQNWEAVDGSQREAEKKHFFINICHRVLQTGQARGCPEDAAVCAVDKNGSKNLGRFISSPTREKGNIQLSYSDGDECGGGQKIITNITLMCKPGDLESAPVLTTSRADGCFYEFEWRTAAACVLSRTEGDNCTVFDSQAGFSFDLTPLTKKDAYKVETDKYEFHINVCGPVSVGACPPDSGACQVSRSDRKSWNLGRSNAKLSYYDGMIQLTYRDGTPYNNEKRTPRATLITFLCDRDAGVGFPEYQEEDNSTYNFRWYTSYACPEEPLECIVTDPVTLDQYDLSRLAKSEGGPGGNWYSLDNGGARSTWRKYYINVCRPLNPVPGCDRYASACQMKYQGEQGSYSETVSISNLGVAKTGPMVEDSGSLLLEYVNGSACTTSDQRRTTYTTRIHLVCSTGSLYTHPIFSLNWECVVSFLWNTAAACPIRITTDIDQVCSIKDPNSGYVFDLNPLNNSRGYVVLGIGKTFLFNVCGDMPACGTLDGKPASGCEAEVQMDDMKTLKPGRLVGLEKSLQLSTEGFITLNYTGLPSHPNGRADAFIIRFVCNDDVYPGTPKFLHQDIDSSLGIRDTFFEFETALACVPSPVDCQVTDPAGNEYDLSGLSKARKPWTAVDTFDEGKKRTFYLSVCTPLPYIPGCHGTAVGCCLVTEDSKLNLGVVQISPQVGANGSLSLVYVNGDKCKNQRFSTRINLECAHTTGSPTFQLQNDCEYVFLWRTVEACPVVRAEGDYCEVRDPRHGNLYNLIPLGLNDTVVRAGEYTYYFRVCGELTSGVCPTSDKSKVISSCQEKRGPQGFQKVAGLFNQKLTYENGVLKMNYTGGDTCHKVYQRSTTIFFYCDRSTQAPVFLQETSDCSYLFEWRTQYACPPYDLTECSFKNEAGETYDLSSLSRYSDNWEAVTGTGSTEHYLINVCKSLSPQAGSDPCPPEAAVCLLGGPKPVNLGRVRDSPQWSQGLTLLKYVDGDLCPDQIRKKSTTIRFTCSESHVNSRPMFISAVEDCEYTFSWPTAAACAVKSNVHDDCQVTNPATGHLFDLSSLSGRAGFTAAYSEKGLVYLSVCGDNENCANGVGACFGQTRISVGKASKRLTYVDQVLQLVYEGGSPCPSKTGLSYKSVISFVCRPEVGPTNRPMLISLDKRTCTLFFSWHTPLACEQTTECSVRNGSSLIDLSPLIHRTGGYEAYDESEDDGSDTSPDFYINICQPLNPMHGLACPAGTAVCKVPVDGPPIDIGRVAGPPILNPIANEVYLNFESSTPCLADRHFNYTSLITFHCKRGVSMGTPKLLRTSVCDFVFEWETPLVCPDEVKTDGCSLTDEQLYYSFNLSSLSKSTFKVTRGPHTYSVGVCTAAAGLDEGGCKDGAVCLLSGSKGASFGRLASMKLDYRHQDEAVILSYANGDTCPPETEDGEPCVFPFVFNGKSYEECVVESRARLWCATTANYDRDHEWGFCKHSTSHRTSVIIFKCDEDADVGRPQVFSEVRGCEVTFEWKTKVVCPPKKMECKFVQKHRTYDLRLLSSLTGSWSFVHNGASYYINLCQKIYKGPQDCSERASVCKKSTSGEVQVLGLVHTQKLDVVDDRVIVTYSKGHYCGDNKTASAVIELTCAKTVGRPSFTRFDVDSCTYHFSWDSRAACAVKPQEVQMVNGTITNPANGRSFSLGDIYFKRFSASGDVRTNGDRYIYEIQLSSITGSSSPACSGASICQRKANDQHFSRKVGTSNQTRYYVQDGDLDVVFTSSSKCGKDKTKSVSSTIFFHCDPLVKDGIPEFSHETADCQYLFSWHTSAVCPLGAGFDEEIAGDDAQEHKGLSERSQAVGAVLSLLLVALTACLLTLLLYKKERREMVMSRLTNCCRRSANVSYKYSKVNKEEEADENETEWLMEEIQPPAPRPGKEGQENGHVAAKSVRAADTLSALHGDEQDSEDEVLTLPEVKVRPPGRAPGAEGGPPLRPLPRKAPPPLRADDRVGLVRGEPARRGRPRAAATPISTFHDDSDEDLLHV

| percent of GBA activity eluted after the start of the M6P gradient (retained on the receptor column) [1] | percent of the retained GBA activity eluted only after the addition of 5 mM M6P [1] | percent of sample eluted prior to the start of the M6P gradient (not retained on the receptor column) [2] | Substance |
| --- | --- | --- | --- |
| 77% | 35% |  | highly phosphorylated human acid β-glucocerebrosidase (HP-GBA), treated with GlcNAc-phosphotransferase and uncovering enzyme (from UniProt P04062 40-536) |
|  |  | > 99% | human acid β-glucocerebrosidase (GBA), partially purified, before phosphorylation (from UniProt P04062 40-536) (enzyme) |
